According to the supplement of paper PMC10567573:

B1: ALKBH7 (parent)
chain: SVICRSLPEGMGPGESGQPPPAC
B2: FCHO1 (parent)
chain: FTSSPSPFSSSSPENVEDSGLDSP

Variants of: B1
Experiment: protein stability index of a GFP-peptide fusion (GPS, HEK-293T) (PSI 1-6); higher = more stable
Conditions: c terminus: native
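Also: lentivirally expressed fusions sorted by FACS into six bins by GFP to DsRed ratio, PSI derived from sequencing read proportions per bin multiplied by bin number.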

Row | Variant | protein stability index
1 | S1T | 2.2
2 | S1H | 1.98
3 | S1G | 2.23
4 | S1M | 1.47
5 | S1D | 1.87
6 | S1P | 2.23
7 | S1I | 3.78
8 | S1R | 1.39
9 | S1N | 1.63
10 | S1E | 3.06
11 | I3H | 3.61
12 | I3A | 2.19
13 | I3Y | 1.62
14 | I3V | 1.84
15 | I3S | 2.51
16 | I3F | 1.66
17 | I3Q | 1.49
18 | I3L | 1.6
19 | I3E | 2.88
20 | I3M | 1.43
21 | I3R | 2.64
22 | I3K | 1.65
23 | I3T | 1.92

Row | Variant | protein stability index
24 | I3N | 2.23
25 | I3P | 2.4
26 | C4F | 1.61
27 | C4G | 1.79
28 | C4I | 2.88
29 | C4H | 2.29
30 | C4A | 3.06
31 | C4D | 1.58
32 | V2M | 2.57
33 | V2P | 2.31
34 | V2F | 2.78
35 | V2D | 2.05
36 | V2Q | 2.26
37 | V2C | 1.73
38 | V2H | 1.78
39 | V2K | 2.14
40 | V2N | 2.41
41 | V2G | 2.08
42 | V2A | 2.4
43 | V2S | 2.67
44 | V2I | 2.77
45 | V2T | 2.9
46 | V2E | 2.4

Variants of: B2
Experiment: as above
Conditions: c terminus: a fixed tail appended

Row | Variant | protein stability index
47 | G20T | 3.02
48 | G20H | 2.43
49 | G20L | 2.07
50 | G20V | 1.64
51 | G20W | 1.56
52 | G20C | 2.31
53 | G20P | 1.86
54 | G20N | 1.98
55 | G20K | 2.87
56 | G20I | 1.97
57 | G20S | 2.09
58 | G20Y | 2.33
59 | G20Q | 1.99
60 | G20R | 1.91
61 | G20F | 2.32
62 | G20D | 1.88
63 | G20M | 2.07
64 | G20A | 1.88
65 | G20E | 2.04
66 | D18W | 1.92
67 | D18V | 1.73
68 | D18T | 2.03
69 | D18S | 1.82
70 | D18Y | 2.27
71 | D18R | 1.6

Row | Variant | protein stability index
72 | D18Q | 1.93
73 | D22A | 2
74 | D22S | 1.78
75 | D22W | 2.62
76 | D22N | 2.96
77 | D22L | 2.14
78 | D22G | 1.86
79 | D22C | 2.47
80 | D22I | 2.11
81 | D22V | 2.43
82 | D22P | 2.23
83 | D22T | 2.18
84 | D22M | 1.48
85 | D22Y | 2.42
86 | D22H | 2.29
87 | D22Q | 1.83
88 | D22E | 2.6
89 | D22R | 2.04
90 | D22K | 1.74
91 | D22F | 1.31
92 | S23W | 2.12
93 | S23V | 1.56
94 | S23L | 2.6
95 | S23Q | 2.66
96 | S23G | 1.81

Row | Variant | protein stability index
97 | S23Y | 1.37
98 | S23C | 1.68
99 | S23P | 2.27
100 | S23H | 2.44
101 | S23A | 2.06
102 | S23E | 1.88
103 | S23N | 1.78
104 | S23K | 2.17
105 | S23T | 1.8
106 | S23I | 1.91
107 | S23M | 1.68
108 | S23D | 2.18
109 | S23R | 1.79
110 | S23F | 2.18
111 | L21K | 2.02
112 | L21Q | 2.03
113 | L21R | 2.21
114 | L21E | 1.95
115 | L21S | 1.81
116 | L21M | 2.84
117 | L21H | 2.27
118 | L21Y | 2.19
119 | L21F | 2.07
120 | L21A | 1.49
121 | L21I | 2.87

Row | Variant | protein stability index
122 | L21N | 2.28
123 | L21C | 2.23
124 | L21P | 2.14
125 | L21W | 1.7
126 | L21D | 2.06
127 | L21V | 2.01
128 | L21G | 2.12
129 | L21T | 2.52
130 | P24H | 2.42
131 | P24Y | 2.35
132 | P24S | 1.94
133 | P24A | 1.38
134 | P24K | 1.96
135 | P24L | 1.98
136 | P24D | 1.85
137 | P24I | 1.96
138 | P24Q | 2.32
139 | P24G | 1.77
140 | P24N | 1.81
141 | P24M | 2.24
142 | P24W | 1.54
143 | P24R | 2.47
144 | P24F | 1.89
145 | P24C | 2.99
146 | P24V | 2.02

Row | Variant | protein stability index
147 | P24T | 2.08
148 | P24E | 1.84
149 | S19E | 1.81
150 | S19M | 1.5
151 | S19R | 2.39
152 | S19C | 2.22
153 | S19A | 2.04
154 | S19W | 1.57
155 | S19I | 2.27
156 | S19N | 2.06
157 | S19T | 2.34
158 | S19V | 2
159 | S19Y | 2.78
160 | S19H | 2.46
161 | S19Q | 2.21
162 | S19K | 1.95
163 | S19D | 1.9
164 | S19F | 2.24
165 | S19P | 2.26
166 | S19G | 1.64
167 | S19L | 2.32
